Source: patent US20050214890

System: GST-RFP-SPSS/FXa-GFP-His6 fluorescent fusion protein [GST: P08515]

## coagulation factor Xa
  SDS-PAGE and Western blot of substrate cleavage products (GST-RFP and GFP-His): demonstrated specific cleavage of the substrate by FXa, as the amounts of the native proteins decreased while the amounts of the two truncated products (GST-RFP and GFP-His) increased with increasing concentrations of FXa
